The results in this text go back to patent US20240067706A1 (published 2024).

Assay in all cases: BLI
Background: In BLI a coated tip is dipped into the sample, and binding shifts an interference pattern.

Experiment [1] has as its target SARS-CoV S protein (soluble, purified in vitro) (SARS-CoV, UniProt P59594 14-1195).
Experiment [2] concerns the target SARS-CoV-2 S protein (full-length S protein, soluble, purified in vitro) (SARS-CoV-2, UniProt P0DTC2 16-1213).
Experiment [3] has as its target T1, MERS-CoV S protein (soluble, purified in vitro) (MERS-CoV, UniProt K9N5Q8 18-1297).
T1 chain: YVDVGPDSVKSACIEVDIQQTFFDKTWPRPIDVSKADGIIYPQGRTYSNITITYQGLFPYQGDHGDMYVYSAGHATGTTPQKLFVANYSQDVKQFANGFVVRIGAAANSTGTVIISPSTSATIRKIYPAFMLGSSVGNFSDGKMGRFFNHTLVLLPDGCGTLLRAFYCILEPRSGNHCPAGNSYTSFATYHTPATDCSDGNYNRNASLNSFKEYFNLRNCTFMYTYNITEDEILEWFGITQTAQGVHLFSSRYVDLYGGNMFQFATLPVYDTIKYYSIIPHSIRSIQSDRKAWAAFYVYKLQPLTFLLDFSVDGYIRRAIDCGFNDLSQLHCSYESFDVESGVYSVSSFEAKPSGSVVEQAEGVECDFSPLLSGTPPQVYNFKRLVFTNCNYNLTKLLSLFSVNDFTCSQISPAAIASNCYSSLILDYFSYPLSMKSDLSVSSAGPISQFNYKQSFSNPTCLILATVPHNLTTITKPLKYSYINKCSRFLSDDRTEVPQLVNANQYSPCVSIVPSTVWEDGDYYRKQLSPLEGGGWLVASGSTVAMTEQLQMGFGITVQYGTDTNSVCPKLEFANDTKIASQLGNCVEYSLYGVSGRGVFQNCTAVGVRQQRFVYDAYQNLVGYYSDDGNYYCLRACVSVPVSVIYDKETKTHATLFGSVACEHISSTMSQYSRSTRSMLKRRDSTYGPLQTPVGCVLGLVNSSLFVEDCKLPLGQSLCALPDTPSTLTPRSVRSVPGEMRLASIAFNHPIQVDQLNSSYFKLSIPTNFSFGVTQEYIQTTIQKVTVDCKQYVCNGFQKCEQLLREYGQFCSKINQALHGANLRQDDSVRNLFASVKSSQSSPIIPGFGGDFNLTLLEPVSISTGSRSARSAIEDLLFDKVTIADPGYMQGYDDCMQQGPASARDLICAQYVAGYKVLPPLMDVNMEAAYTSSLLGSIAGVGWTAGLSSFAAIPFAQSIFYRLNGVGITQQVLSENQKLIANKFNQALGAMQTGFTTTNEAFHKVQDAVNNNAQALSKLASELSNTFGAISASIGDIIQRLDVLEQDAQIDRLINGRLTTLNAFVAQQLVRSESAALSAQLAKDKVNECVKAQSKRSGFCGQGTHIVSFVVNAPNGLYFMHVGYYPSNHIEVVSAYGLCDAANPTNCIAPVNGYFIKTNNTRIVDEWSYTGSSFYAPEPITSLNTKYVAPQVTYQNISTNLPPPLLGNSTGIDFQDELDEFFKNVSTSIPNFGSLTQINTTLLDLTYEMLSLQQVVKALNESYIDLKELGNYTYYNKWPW

B1: fully human monoclonal antibody 76E1 (antibody, V domains shown)
VH: EVQLVESGGGVVQPGGSLRLSCEASGFSFKDYGMHWIRQTPGKGLEWISRISGDTRGTSYVDSVKGRFIVSRDNSRNSLFLQMNSLRSEDTALYYCAALVIVAAGDDFDLWGQGTVVTVSS
VL: QSALTQPLSVSGSPGQSVTISCTGSSSDIGSYNFVSWYRQYPGKAPKVMIYEVNKRPSGVPVRFSGSKSGNTASLTVSGLQHEDEADYYCCSYGGRNNLIFGGGTKLTVL
For B1, the Kd in experiment [1] came to 0.107 nM; in experiment [2], 0.431 nM; in experiment [3], 1.03 nM.

In general, Kd refers to the free concentration of one partner at which half of the binding sites on the other are occupied at equilibrium, for simple one-to-one binding. Lower therefore signals higher affinity.
